PMC6239184, “Dynamic association of human mRNP proteins with mitochondrial tRNAs in the cytosol”

B1: mt tRNAGly (structured_RNA)
RNA: ACUCUUUUAGUAUAAAUAGUACCGUUAACUUCCAAUUAACUAGUUUUGACAACAUUCAAAAAAGAGUACCA
B2: mt tRNALeu(UUR) (structured_RNA)
RNA: GUUAAGAUGGCAGAGCCCGGUAAUCGCAUAAAACUUAAAACUUUACAGUCAGAGGUUCAAUUCCUCUUCUUAACACCA

How the values were obtained:
YBX1 = YBX1 (Homo sapiens, UniProt P67809 1-324); test: EMSA; EMSA: 1 fmol labeled RNA, 0.1-4 pmol protein, 5% native acrylamide gel; buffer, salt, pH, temperature not given (refers to Marnef et al. 2016); details: protein: recombinant, tags: Strep-tag (N-terminal, in 5' primer), Ni-NTA purified, tRNA fold
YBX1, sequence (P67809 whole entry): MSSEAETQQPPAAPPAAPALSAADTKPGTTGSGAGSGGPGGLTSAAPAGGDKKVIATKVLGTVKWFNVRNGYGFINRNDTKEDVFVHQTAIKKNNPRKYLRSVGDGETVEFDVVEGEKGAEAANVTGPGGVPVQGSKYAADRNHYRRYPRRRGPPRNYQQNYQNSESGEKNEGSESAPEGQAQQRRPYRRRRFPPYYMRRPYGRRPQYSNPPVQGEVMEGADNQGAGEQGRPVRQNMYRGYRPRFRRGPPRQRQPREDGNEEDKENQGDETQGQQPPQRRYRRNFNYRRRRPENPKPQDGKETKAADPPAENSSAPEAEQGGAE

YBX3 = YBX3 (Homo sapiens, UniProt P16989 1-372); test: as above; details: protein: recombinant, tags: Strep-tag (N-terminal, in 5' primer), Ni-NTA purified, tRNA fold
YBX3, sequence (P16989 whole entry): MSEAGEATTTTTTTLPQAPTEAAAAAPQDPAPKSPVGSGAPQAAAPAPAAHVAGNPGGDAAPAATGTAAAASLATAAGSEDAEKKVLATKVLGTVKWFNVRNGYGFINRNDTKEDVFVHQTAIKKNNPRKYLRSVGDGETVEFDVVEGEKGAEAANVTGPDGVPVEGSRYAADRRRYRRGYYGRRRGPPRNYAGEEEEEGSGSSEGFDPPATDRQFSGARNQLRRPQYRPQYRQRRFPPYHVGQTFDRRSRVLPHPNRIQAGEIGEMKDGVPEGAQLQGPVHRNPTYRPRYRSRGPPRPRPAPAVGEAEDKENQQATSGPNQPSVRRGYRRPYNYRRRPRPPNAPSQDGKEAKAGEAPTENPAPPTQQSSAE

Row | Binder | binding result (YBX1) | binding result (YBX3) | binding result (YBX1; label: internal 32P-CTP) | binding result (YBX3; label: internal 32P-CTP)
1 | B1 | binds | binds |  | 
2 | B2 |  |  | binds | binds
